{"source": "paper PMC5123862", "key": {"[1]": {"biological_target": "Monoubiquitinated PCNA ((Ub)3-PCNA): a single ubiquitin moiety on K164 of each monomer within a homotrimeric clamp ring (human) (UniProt P12004)"}, "[2]": {"biological_target": "Wild-type PCNA (human) (human) (UniProt P12004)", "sequence (P12004 whole entry)": "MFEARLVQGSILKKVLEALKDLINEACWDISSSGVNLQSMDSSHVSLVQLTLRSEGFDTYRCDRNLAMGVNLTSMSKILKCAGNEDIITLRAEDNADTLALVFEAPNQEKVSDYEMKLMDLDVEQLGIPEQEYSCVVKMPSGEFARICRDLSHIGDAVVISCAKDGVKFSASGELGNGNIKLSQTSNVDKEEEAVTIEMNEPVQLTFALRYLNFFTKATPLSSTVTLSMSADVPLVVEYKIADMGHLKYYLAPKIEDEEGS"}}}
{"binder": "Pol η (human DNA polymerase eta, full length, wild type, unlabeled) (enzyme) MATGQDRVVALVDMDCFFVQVEQRQNPHLRNKPCAVVQYKSWKGGGIIAVSYEARAFGVTRSMWADDAKKLCPDLLLAQVRESRGKANLTKYREASVEVMEIMSRFAVIERASIDEAYVDLTSAVQERLQKLQGQPISADLLPSTYIEGLPQGPTTAEETVQKEGMRKQGLFQWLDSLQIDNLTSPDLQLTVGAVIVEEMRAAIERETGFQCSAGISHNKVLAKLACGLNKPNRQTLVSHGSVPQLFSQMPIRKIRSLGGKLGASVIEILGIEYMGELTQFTESQLQSHFGEKNGSWLYAMCRGIEHDPVKPRQLPKTIGCSKNFPGKTALATREQVQWWLLQLAQELEERLTKDRNDNDRVATQLVVSIRVQGDKRLSSLRRCCALTRYDAHKMSHDAFTVIKNCNTSGIQTEWSPPLTMLFLCATKFSASAPSSSTDITSFLSSDPSSLPKVPVTSSEAKTQGSGPAVTATKKATTSLESFFQKAAERQKVKEASLSSLTAPTQAPMSNSPSKPSLPFQTSQSTGTEPFFKQKSLLLKQKQLNNSSVSSPQQNPWSNCKALPNSLPTEYPGCVPVCEGVSKLEESSKATPAEMDLAHNSQSMHASSASKSVLEVTQKATPNPSLLAAEDQVPCEKCGSLVPVWDMPEHMDYHFALELQKSFLQPHSSNPQVVSAVSHQGKRNPKSPLACTNKRPRPEGMQTLESFFKPLTH", "values": [{"measurement": "abundance of the pol η TLS complex (P2, probability of insertion at i = 2) on undamaged TT P/T DNA: increase in the presence of (Ub)3-PCNA", "setting": "[1]", "result": 2.75, "unit": "fold"}, {"measurement": "abundance of the pol η TLS complex (P2, probability of insertion at i = 2) on undamaged TT P/T DNA: increase in the presence of PCNA", "setting": "[2]", "result": 2.53, "unit": "fold"}, {"measurement": "primer extension by pol η on the undamaged TT P/T DNA substrate under single turnover conditions: stimulation in the presence of PCNA against pol η alone", "setting": "[2]", "result": 2.02, "unit": "fold"}]}
